# Test results reported in patent US20140193401A1.
# Key:
# [1] = molecular target: PTx-S1-220 R79A (Bordetella pertussis) (UniProt P04977)
# [2] = molecular target: PTx-S1-220 R79A (Bordetella pertussis) (UniProt P04977); experiment: ELISA, hu1B7 as primary antibody; EC50 as percent of the PTx reference
# [3] = molecular target: PTx-S1E (residues 1-220, D34E, S162P, I198M) (Bordetella pertussis) (UniProt Q7WDU8); experiment: SPR (BIAcore 3000), mAb 1B7 immobilised on CM5 chip, toxin injected
# [4] = molecular target: pertussis toxin holotoxin (Bordetella pertussis) (UniProt P04977); experiment: competition ELISA (Friguet), 5 nM antibody with PT in solution, coated PT
# [5] = molecular target: pertussis toxin holotoxin (Bordetella pertussis) (UniProt P04977); experiment: cell-based or functional assay
substance,measurement,setting,value
hu1B7 scAb (humanized 1B7 single-chain Fv with C-terminal human kappa constant domain) (scFv),% EC50 PTx,[1],1%
same,% EC50 PTX,[2],1%
murine monoclonal antibody 1B7,koff,[3],0.0018 s⁻¹
murine monoclonal antibody 11E6,Kd,[4],20 nM
same,"In Vitro Neutralization (nM), minimum protective concentration, CHO clustering assay",[5],5.2 nM
